According to patent publication US20250313635A1 (Merck Sharp & Dohme, published 2025):

Biological target: T1, recombinant mouse αvβ6 integrin extracellular domains (mouse, UniProt P43406 1-988; Q9Z0T9 1-706, Biotinylated on the Avitag (tag not in the letters); interchain disulfide between the coiled-coils (not in the letters).)
T1 construct: Soluble heterodimer co-expressed in Expi293 cells; also called mαvβ6
Experiment: ForteBio Octet Red (BLI); lower end tied to Ab-33 and mαvβ6 by Table 13

T1 sequence (P43406 31-988 limits assumed, form in doubt, chain 1 of 2): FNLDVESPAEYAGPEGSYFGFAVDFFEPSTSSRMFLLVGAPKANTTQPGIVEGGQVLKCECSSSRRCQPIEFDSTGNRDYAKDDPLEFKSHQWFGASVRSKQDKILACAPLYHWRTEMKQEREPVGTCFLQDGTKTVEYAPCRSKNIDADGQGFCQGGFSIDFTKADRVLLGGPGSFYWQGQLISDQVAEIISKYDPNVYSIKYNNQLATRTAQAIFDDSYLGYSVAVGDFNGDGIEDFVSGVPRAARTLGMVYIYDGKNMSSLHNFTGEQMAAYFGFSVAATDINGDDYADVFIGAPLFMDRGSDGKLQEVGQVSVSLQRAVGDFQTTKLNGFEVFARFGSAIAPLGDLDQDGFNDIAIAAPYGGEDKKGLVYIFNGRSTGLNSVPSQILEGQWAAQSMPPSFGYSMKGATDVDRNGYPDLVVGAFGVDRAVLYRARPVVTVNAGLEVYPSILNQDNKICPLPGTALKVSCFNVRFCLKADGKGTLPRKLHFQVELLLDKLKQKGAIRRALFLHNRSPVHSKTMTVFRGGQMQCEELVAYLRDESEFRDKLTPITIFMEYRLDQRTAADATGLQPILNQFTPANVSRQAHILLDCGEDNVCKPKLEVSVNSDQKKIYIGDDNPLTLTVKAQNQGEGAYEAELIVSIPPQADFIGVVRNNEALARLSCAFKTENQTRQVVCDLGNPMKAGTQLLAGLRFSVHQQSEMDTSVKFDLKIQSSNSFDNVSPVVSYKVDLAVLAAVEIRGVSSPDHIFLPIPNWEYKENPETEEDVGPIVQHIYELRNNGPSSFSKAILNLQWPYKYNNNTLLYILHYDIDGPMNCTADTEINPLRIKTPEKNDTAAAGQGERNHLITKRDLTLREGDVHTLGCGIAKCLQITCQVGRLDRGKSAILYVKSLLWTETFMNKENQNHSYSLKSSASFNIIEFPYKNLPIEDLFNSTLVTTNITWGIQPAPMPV
T1 sequence (Q9Z0T9 22-706 limits assumed, form in doubt, chain 2 of 2): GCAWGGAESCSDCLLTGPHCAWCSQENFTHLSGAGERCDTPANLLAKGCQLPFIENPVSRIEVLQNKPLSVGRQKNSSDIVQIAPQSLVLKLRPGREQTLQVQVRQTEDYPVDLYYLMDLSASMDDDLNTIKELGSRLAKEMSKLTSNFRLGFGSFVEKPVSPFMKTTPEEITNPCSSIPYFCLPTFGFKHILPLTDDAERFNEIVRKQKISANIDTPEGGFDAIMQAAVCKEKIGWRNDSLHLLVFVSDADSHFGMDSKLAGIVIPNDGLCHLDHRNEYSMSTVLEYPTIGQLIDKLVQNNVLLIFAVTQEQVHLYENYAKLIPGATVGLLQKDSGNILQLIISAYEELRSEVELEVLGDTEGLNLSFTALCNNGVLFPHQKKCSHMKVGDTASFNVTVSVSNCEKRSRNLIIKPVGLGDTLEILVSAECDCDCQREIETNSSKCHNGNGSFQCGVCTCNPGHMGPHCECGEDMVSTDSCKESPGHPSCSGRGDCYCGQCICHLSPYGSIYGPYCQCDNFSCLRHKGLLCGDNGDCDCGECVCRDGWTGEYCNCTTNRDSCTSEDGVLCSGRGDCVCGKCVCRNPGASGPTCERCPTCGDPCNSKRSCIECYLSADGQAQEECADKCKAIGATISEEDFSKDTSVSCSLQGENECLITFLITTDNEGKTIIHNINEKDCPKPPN

Kd: 2 to 48 nM
B1: Ab-33 (antibody, V domains shown)
VH: EVQLVQSGAEVKKPGSSVKVSCKASGGTFSNYAISWVRQAPGQGLEWMGGIIPIFGTANYAQKFQGRVTITADESTSTAYMELSSLRSEDTAVYYCARAPRSARGDMYYYYYGMDVWGQGTTVTVSS
VL: DIQMTQSPSTLSASVGDRVTITCRASQSIGSWLAWYQQKPGKAPKLLIYKASSLESGVPSRFSGSGSGTEFTLTISSLQPDDFATYYCQQYGRYPWTFGGGTKVEIK
